Data: the supplement of paper PMC10567573

B1: MYBL2 (parent)
chain: IAKHLKGRLGKQCRERWHNHLNPE

Variants of: B1
Experiment: protein stability index of a GFP-peptide fusion (GPS, HEK-293T) (PSI 1-6); higher = more stable
Conditions: c terminus: a fixed tail appended
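Further: lentivirally expressed fusions sorted by FACS into six bins by GFP to DsRed ratio, PSI derived from sequencing read proportions per bin multiplied by bin number.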

Row | Variant | protein stability index
1 | FAKHLKGRLGKQCRERWHNHLNPE [I1F] | 2.7
2 | AAKHLKGRLGKQCRERWHNHLNPE [I1A] | 2.37
3 | QAKHLKGRLGKQCRERWHNHLNPE [I1Q] | 2.64
4 | GAKHLKGRLGKQCRERWHNHLNPE [I1G] | 2.4
5 | VAKHLKGRLGKQCRERWHNHLNPE [I1V] | 2.54
6 | RAKHLKGRLGKQCRERWHNHLNPE [I1R] | 2.1
7 | DAKHLKGRLGKQCRERWHNHLNPE [I1D] | 2.06
8 | CAKHLKGRLGKQCRERWHNHLNPE [I1C] | 1.49
9 | NAKHLKGRLGKQCRERWHNHLNPE [I1N] | 2.45
10 | EAKHLKGRLGKQCRERWHNHLNPE [I1E] | 2.53
11 | TAKHLKGRLGKQCRERWHNHLNPE [I1T] | 2.64
12 | YAKHLKGRLGKQCRERWHNHLNPE [I1Y] | 1.56
13 | SAKHLKGRLGKQCRERWHNHLNPE [I1S] | 2.17
14 | WAKHLKGRLGKQCRERWHNHLNPE [I1W] | 1.36
15 | MAKHLKGRLGKQCRERWHNHLNPE [I1M] | 2.58
16 | KAKHLKGRLGKQCRERWHNHLNPE [I1K] | 2.18
17 | HAKHLKGRLGKQCRERWHNHLNPE [I1H] | 2.19
18 | LAKHLKGRLGKQCRERWHNHLNPE [I1L] | 1.67
19 | PAKHLKGRLGKQCRERWHNHLNPE [I1P] | 2.6
20 | IAKHDKGRLGKQCRERWHNHLNPE [L5D] | 2.7
21 | IAKHSKGRLGKQCRERWHNHLNPE [L5S] | 2.29
22 | IAKHEKGRLGKQCRERWHNHLNPE [L5E] | 2.49
23 | IAKHFKGRLGKQCRERWHNHLNPE [L5F] | 1.67
24 | IAKHMKGRLGKQCRERWHNHLNPE [L5M] | 1.72

Row | Variant | protein stability index
25 | IAKHTKGRLGKQCRERWHNHLNPE [L5T] | 2.35
26 | IAKHNKGRLGKQCRERWHNHLNPE [L5N] | 2.38
27 | IAKHVKGRLGKQCRERWHNHLNPE [L5V] | 2.18
28 | IAKHPKGRLGKQCRERWHNHLNPE [L5P] | 2.07
29 | IAKHAKGRLGKQCRERWHNHLNPE [L5A] | 2.18
30 | IAKHWKGRLGKQCRERWHNHLNPE [L5W] | 1.84
31 | IAKHYKGRLGKQCRERWHNHLNPE [L5Y] | 1.86
32 | IAKHQKGRLGKQCRERWHNHLNPE [L5Q] | 1.87
33 | IAKHCKGRLGKQCRERWHNHLNPE [L5C] | 1.9
34 | IAKHGKGRLGKQCRERWHNHLNPE [L5G] | 2.04
35 | IAKHKKGRLGKQCRERWHNHLNPE [L5K] | 2.49
36 | IAKHIKGRLGKQCRERWHNHLNPE [L5I] | 1.75
37 | IAKHRKGRLGKQCRERWHNHLNPE [L5R] | 2.7
38 | IAKHHKGRLGKQCRERWHNHLNPE [L5H] | 2.51
39 | IAIHLKGRLGKQCRERWHNHLNPE [K3I] | 1.51
40 | IAMHLKGRLGKQCRERWHNHLNPE [K3M] | 1.81
41 | IAAHLKGRLGKQCRERWHNHLNPE [K3A] | 2.84
42 | IALHLKGRLGKQCRERWHNHLNPE [K3L] | 2.34
43 | IANHLKGRLGKQCRERWHNHLNPE [K3N] | 1.8
44 | IAHHLKGRLGKQCRERWHNHLNPE [K3H] | 2.32
45 | IAQHLKGRLGKQCRERWHNHLNPE [K3Q] | 2.96
46 | IAEHLKGRLGKQCRERWHNHLNPE [K3E] | 2
47 | IADHLKGRLGKQCRERWHNHLNPE [K3D] | 2.3
48 | IAGHLKGRLGKQCRERWHNHLNPE [K3G] | 1.79

Row | Variant | protein stability index
49 | IARHLKGRLGKQCRERWHNHLNPE [K3R] | 2.03
50 | IAYHLKGRLGKQCRERWHNHLNPE [K3Y] | 2.17
51 | IASHLKGRLGKQCRERWHNHLNPE [K3S] | 1.44
52 | IATHLKGRLGKQCRERWHNHLNPE [K3T] | 1.81
53 | IAPHLKGRLGKQCRERWHNHLNPE [K3P] | 1.93
54 | IAFHLKGRLGKQCRERWHNHLNPE [K3F] | 2.46
55 | IAWHLKGRLGKQCRERWHNHLNPE [K3W] | 1.95
56 | IACHLKGRLGKQCRERWHNHLNPE [K3C] | 2.25
57 | IAVHLKGRLGKQCRERWHNHLNPE [K3V] | 2.9
58 | INKHLKGRLGKQCRERWHNHLNPE [A2N] | 2.2
59 | ISKHLKGRLGKQCRERWHNHLNPE [A2S] | 2.1
60 | ICKHLKGRLGKQCRERWHNHLNPE [A2C] | 1.8
61 | IHKHLKGRLGKQCRERWHNHLNPE [A2H] | 2.04
62 | IYKHLKGRLGKQCRERWHNHLNPE [A2Y] | 1.76
63 | ITKHLKGRLGKQCRERWHNHLNPE [A2T] | 2.37
64 | IEKHLKGRLGKQCRERWHNHLNPE [A2E] | 2.16
65 | IWKHLKGRLGKQCRERWHNHLNPE [A2W] | 1.64
66 | ILKHLKGRLGKQCRERWHNHLNPE [A2L] | 3.74
67 | IKKHLKGRLGKQCRERWHNHLNPE [A2K] | 2.12
68 | IRKHLKGRLGKQCRERWHNHLNPE [A2R] | 2.53
69 | IDKHLKGRLGKQCRERWHNHLNPE [A2D] | 2.15
70 | IPKHLKGRLGKQCRERWHNHLNPE [A2P] | 1.75
71 | IGKHLKGRLGKQCRERWHNHLNPE [A2G] | 1.95
72 | IMKHLKGRLGKQCRERWHNHLNPE [A2M] | 1.6

Row | Variant | protein stability index
73 | IQKHLKGRLGKQCRERWHNHLNPE [A2Q] | 2.03
74 | IIKHLKGRLGKQCRERWHNHLNPE [A2I] | 1.59
75 | IVKHLKGRLGKQCRERWHNHLNPE [A2V] | 1.53
76 | IAKHLKRRLGKQCRERWHNHLNPE [G7R] | 2.2
77 | IAKHLKCRLGKQCRERWHNHLNPE [G7C] | 1.6
78 | IAKHLKMRLGKQCRERWHNHLNPE [G7M] | 1.77
79 | IAKHLKDRLGKQCRERWHNHLNPE [G7D] | 2.61
80 | IAKHLKARLGKQCRERWHNHLNPE [G7A] | 2.94
81 | IAKHLKWRLGKQCRERWHNHLNPE [G7W] | 2.74
82 | IAKHLKIRLGKQCRERWHNHLNPE [G7I] | 2.31
83 | IAKHLKNRLGKQCRERWHNHLNPE [G7N] | 1.82
84 | IAKHLKERLGKQCRERWHNHLNPE [G7E] | 1.88
85 | IAKHLKPRLGKQCRERWHNHLNPE [G7P] | 2.14
86 | IAKHLKLRLGKQCRERWHNHLNPE [G7L] | 2.71
87 | IAKHLKKRLGKQCRERWHNHLNPE [G7K] | 1.77
88 | IAKHLKSRLGKQCRERWHNHLNPE [G7S] | 2.39
89 | IAKHLKHRLGKQCRERWHNHLNPE [G7H] | 3.17
90 | IAKHLKTRLGKQCRERWHNHLNPE [G7T] | 2.25
91 | IAKHLKVRLGKQCRERWHNHLNPE [G7V] | 2.45
92 | IAKHLKFRLGKQCRERWHNHLNPE [G7F] | 2.25
93 | IAKHLKQRLGKQCRERWHNHLNPE [G7Q] | 1.65
94 | IAKHLKYRLGKQCRERWHNHLNPE [G7Y] | 2.14
